Test [1] has as its target stripped Anabaena flos-aquae (Ana) gas vesicles (GV shell, native GvpC removed) (Anabaena flos-aquae) (UniProt P10397).
Test [2] shares this target. The source holds these as a separate data set.

UniProt P10397, sequence (P10397 whole entry): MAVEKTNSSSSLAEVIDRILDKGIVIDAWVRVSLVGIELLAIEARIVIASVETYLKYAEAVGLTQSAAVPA

In test [1], phosphorylated UReKA1 GvpC (pThr60) gave a midpoint collapse pressure of UReKA1 GVs (pressurized absorbance spectroscopy), after PKA phosphorylation of 227 kPa and a nonlinear (xAM) ultrasound signal of purified UReKA1 GVs at 350 kPa, with PKA against without PKA of 4.5 fold. The time course of the nonlinear ultrasound signal of UReKA1 GVs after PKA addition; time to maximal contrast (signal first detectable after 2-3 h) in test [2] is 8 h.
In test [1], phosphorylated UReKA2 GvpC (pThr81) registered a midpoint collapse pressure of UReKA2 GVs (pressurized absorbance spectroscopy), after PKA phosphorylation of 283 kPa and a nonlinear (xAM) ultrasound signal of purified UReKA2 GVs at 489 kPa, with PKA against without PKA of 12.9 fold. In addition, the time course of the nonlinear ultrasound signal of UReKA2 GVs after PKA addition; time to maximal contrast (signal first detectable after 2-3 h) in test [2] is 12 h.

The values above are taken from PMC13602928.
